The target of this assay is HRgpA-6H (Porphyromonas gingivalis) (UniProt P28784). The experiment in a line: ELISA, coated HRgpA-6H.

Values joined by “and” are separate entries in the source; they are usually repeats but may differ in a detail not shown here. Identical values can stand only once.

Sequence of UniProt P28784 (P28784 228-860 limits assumed): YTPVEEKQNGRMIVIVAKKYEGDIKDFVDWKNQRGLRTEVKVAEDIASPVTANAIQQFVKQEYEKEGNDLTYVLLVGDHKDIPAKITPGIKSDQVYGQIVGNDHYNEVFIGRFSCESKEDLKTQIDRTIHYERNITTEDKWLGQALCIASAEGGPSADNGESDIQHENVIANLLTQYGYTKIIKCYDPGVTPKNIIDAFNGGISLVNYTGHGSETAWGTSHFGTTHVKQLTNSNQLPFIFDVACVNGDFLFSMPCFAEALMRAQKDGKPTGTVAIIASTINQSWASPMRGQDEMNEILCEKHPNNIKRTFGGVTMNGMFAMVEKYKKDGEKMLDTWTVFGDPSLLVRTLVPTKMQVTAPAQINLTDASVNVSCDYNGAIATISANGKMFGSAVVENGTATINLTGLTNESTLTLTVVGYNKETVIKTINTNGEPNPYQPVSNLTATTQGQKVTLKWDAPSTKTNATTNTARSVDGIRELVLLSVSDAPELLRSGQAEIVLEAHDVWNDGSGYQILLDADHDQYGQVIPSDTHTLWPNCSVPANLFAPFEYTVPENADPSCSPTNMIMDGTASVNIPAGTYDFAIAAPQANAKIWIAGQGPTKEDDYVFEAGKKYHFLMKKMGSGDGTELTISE

B1: KB001 mouse Fab VH Y59R (Fab, V domains shown)
VH: EVQLKQSGPGLVAPSQSLSITCTVSGFSLSIYSVHWVRQPPGKGLEWLGMIWGGGSSDRNSALKSRLSISKDNSKSQVFLKMNSLQTDDTAMYYCARNGNFYAMDYWGQGTSVTVSS
VL: QIVLTQSPAIMSASLGERVTMTCTASSSVSSSFLHWYQQKPGSSPQLWIYSTSNLASGVPARFSGSGSGTSYSLTISSMEAEDAATYYCHQYHHSPYIYTFGGGTKLEIK
For B1, the OD450 nm worked out at 0.633 and the Ratio OD(Variant)/OD(WT) is 0.8.

B2: KB001 mouse Fab VH Y59F (Fab, V domains shown)
VH: EVQLKQSGPGLVAPSQSLSITCTVSGFSLSIYSVHWVRQPPGKGLEWLGMIWGGGSSDFNSALKSRLSISKDNSKSQVFLKMNSLQTDDTAMYYCARNGNFYAMDYWGQGTSVTVSS
VL: QIVLTQSPAIMSASLGERVTMTCTASSSVSSSFLHWYQQKPGSSPQLWIYSTSNLASGVPARFSGSGSGTSYSLTISSMEAEDAATYYCHQYHHSPYIYTFGGGTKLEIK
As for B2, the OD450 nm was determined as 0.668 and the Ratio OD(Variant)/OD(WT) came out at 0.845.

B3: KB001 mouse Fab VH S61G (Fab, V domains shown)
VH: EVQLKQSGPGLVAPSQSLSITCTVSGFSLSIYSVHWVRQPPGKGLEWLGMIWGGGSSDYNGALKSRLSISKDNSKSQVFLKMNSLQTDDTAMYYCARNGNFYAMDYWGQGTSVTVSS
VL: QIVLTQSPAIMSASLGERVTMTCTASSSVSSSFLHWYQQKPGSSPQLWIYSTSNLASGVPARFSGSGSGTSYSLTISSMEAEDAATYYCHQYHHSPYIYTFGGGTKLEIK
For B3, the OD450 nm was 0.46 and 0.476; the Ratio OD(Variant)/OD(WT) was 0.932 and 0.965.

B4: KB001 mouse Fab VH S61W (Fab, V domains shown)
VH: EVQLKQSGPGLVAPSQSLSITCTVSGFSLSIYSVHWVRQPPGKGLEWLGMIWGGGSSDYNWALKSRLSISKDNSKSQVFLKMNSLQTDDTAMYYCARNGNFYAMDYWGQGTSVTVSS
VL: QIVLTQSPAIMSASLGERVTMTCTASSSVSSSFLHWYQQKPGSSPQLWIYSTSNLASGVPARFSGSGSGTSYSLTISSMEAEDAATYYCHQYHHSPYIYTFGGGTKLEIK
In the case of B4, the OD450 nm was 0.435 and 0.429; the Ratio OD(Variant)/OD(WT) was 0.881 and 0.869.

B5: KB001 mouse Fab VH N60P (Fab, V domains shown)
VH: EVQLKQSGPGLVAPSQSLSITCTVSGFSLSIYSVHWVRQPPGKGLEWLGMIWGGGSSDYPSALKSRLSISKDNSKSQVFLKMNSLQTDDTAMYYCARNGNFYAMDYWGQGTSVTVSS
VL: QIVLTQSPAIMSASLGERVTMTCTASSSVSSSFLHWYQQKPGSSPQLWIYSTSNLASGVPARFSGSGSGTSYSLTISSMEAEDAATYYCHQYHHSPYIYTFGGGTKLEIK
In the case of B5, the OD450 nm is 0.44 and 0.428; the Ratio OD(Variant)/OD(WT) was 0.892 and 0.867.

B6: KB001 mouse Fab VH N60Q (Fab, V domains shown)
VH: EVQLKQSGPGLVAPSQSLSITCTVSGFSLSIYSVHWVRQPPGKGLEWLGMIWGGGSSDYQSALKSRLSISKDNSKSQVFLKMNSLQTDDTAMYYCARNGNFYAMDYWGQGTSVTVSS
VL: QIVLTQSPAIMSASLGERVTMTCTASSSVSSSFLHWYQQKPGSSPQLWIYSTSNLASGVPARFSGSGSGTSYSLTISSMEAEDAATYYCHQYHHSPYIYTFGGGTKLEIK
With B6, the OD450 nm was 0.447 and 0.402; the Ratio OD(Variant)/OD(WT) was 0.906 and 0.815.

B7: KB001 mouse Fab VH N60S (Fab, V domains shown)
VH: EVQLKQSGPGLVAPSQSLSITCTVSGFSLSIYSVHWVRQPPGKGLEWLGMIWGGGSSDYSSALKSRLSISKDNSKSQVFLKMNSLQTDDTAMYYCARNGNFYAMDYWGQGTSVTVSS
VL: QIVLTQSPAIMSASLGERVTMTCTASSSVSSSFLHWYQQKPGSSPQLWIYSTSNLASGVPARFSGSGSGTSYSLTISSMEAEDAATYYCHQYHHSPYIYTFGGGTKLEIK
As to B7, the OD450 nm was determined as 0.452 and the Ratio OD(Variant)/OD(WT) came to 0.916.

B8: KB001 mouse Fab VH Y59M/S57I (Fab, V domains shown)
VH: EVQLKQSGPGLVAPSQSLSITCTVSGFSLSIYSVHWVRQPPGKGLEWLGMIWGGGSIDMNSALKSRLSISKDNSKSQVFLKMNSLQTDDTAMYYCARNGNFYAMDYWGQGTSVTVSS
VL: QIVLTQSPAIMSASLGERVTMTCTASSSVSSSFLHWYQQKPGSSPQLWIYSTSNLASGVPARFSGSGSGTSYSLTISSMEAEDAATYYCHQYHHSPYIYTFGGGTKLEIK
Consider B8, for which the OD450 nm came to 0.701 and the Ratio OD(Variant)/OD(WT) was 0.886.

B9: KB001 mouse Fab VH S61C (Fab, V domains shown)
VH: EVQLKQSGPGLVAPSQSLSITCTVSGFSLSIYSVHWVRQPPGKGLEWLGMIWGGGSSDYNCALKSRLSISKDNSKSQVFLKMNSLQTDDTAMYYCARNGNFYAMDYWGQGTSVTVSS
VL: QIVLTQSPAIMSASLGERVTMTCTASSSVSSSFLHWYQQKPGSSPQLWIYSTSNLASGVPARFSGSGSGTSYSLTISSMEAEDAATYYCHQYHHSPYIYTFGGGTKLEIK
On to B9, for which the OD450 nm is 0.431 and the Ratio OD(Variant)/OD(WT) stood at 0.873.

B10: KB001 mouse Fab VH S61F (Fab, V domains shown)
VH: EVQLKQSGPGLVAPSQSLSITCTVSGFSLSIYSVHWVRQPPGKGLEWLGMIWGGGSSDYNFALKSRLSISKDNSKSQVFLKMNSLQTDDTAMYYCARNGNFYAMDYWGQGTSVTVSS
VL: QIVLTQSPAIMSASLGERVTMTCTASSSVSSSFLHWYQQKPGSSPQLWIYSTSNLASGVPARFSGSGSGTSYSLTISSMEAEDAATYYCHQYHHSPYIYTFGGGTKLEIK
Consider B10, for which the OD450 nm is 0.432 and 0.473; the Ratio OD(Variant)/OD(WT) is 0.875 and 0.958.

B11: KB001 mouse Fab VH S61Y (Fab, V domains shown)
VH: EVQLKQSGPGLVAPSQSLSITCTVSGFSLSIYSVHWVRQPPGKGLEWLGMIWGGGSSDYNYALKSRLSISKDNSKSQVFLKMNSLQTDDTAMYYCARNGNFYAMDYWGQGTSVTVSS
VL: QIVLTQSPAIMSASLGERVTMTCTASSSVSSSFLHWYQQKPGSSPQLWIYSTSNLASGVPARFSGSGSGTSYSLTISSMEAEDAATYYCHQYHHSPYIYTFGGGTKLEIK
Consider B11, for which the OD450 nm is 0.423 and the Ratio OD(Variant)/OD(WT) stood at 0.857.

B12: KB001 mouse Fab VH S61R (Fab, V domains shown)
VH: EVQLKQSGPGLVAPSQSLSITCTVSGFSLSIYSVHWVRQPPGKGLEWLGMIWGGGSSDYNRALKSRLSISKDNSKSQVFLKMNSLQTDDTAMYYCARNGNFYAMDYWGQGTSVTVSS
VL: QIVLTQSPAIMSASLGERVTMTCTASSSVSSSFLHWYQQKPGSSPQLWIYSTSNLASGVPARFSGSGSGTSYSLTISSMEAEDAATYYCHQYHHSPYIYTFGGGTKLEIK
On to B12, for which the OD450 nm turned out to be 0.438 and the Ratio OD(Variant)/OD(WT) was found to be 0.888.

B13: KB001 mouse Fab VH N60T (Fab, V domains shown)
VH: EVQLKQSGPGLVAPSQSLSITCTVSGFSLSIYSVHWVRQPPGKGLEWLGMIWGGGSSDYTSALKSRLSISKDNSKSQVFLKMNSLQTDDTAMYYCARNGNFYAMDYWGQGTSVTVSS
VL: QIVLTQSPAIMSASLGERVTMTCTASSSVSSSFLHWYQQKPGSSPQLWIYSTSNLASGVPARFSGSGSGTSYSLTISSMEAEDAATYYCHQYHHSPYIYTFGGGTKLEIK
Take B13: the OD450 nm was found to be 0.406 and the Ratio OD(Variant)/OD(WT) amounted to 0.823.

B14: KB001 mouse Fab VH S61M (Fab, V domains shown)
VH: EVQLKQSGPGLVAPSQSLSITCTVSGFSLSIYSVHWVRQPPGKGLEWLGMIWGGGSSDYNMALKSRLSISKDNSKSQVFLKMNSLQTDDTAMYYCARNGNFYAMDYWGQGTSVTVSS
VL: QIVLTQSPAIMSASLGERVTMTCTASSSVSSSFLHWYQQKPGSSPQLWIYSTSNLASGVPARFSGSGSGTSYSLTISSMEAEDAATYYCHQYHHSPYIYTFGGGTKLEIK
Regarding B14, the OD450 nm is 0.493 and 0.479; the Ratio OD(Variant)/OD(WT) is 0.999 and 0.971.

(Values after US20240400654A1.)
